Experimental findings from PMC6019379, “RecA-like domain 2 of DNA-dependent ATPase A domain, a SWI2/SNF2 protein, mediates conformational integrity and ATP hydrolysis” (Bioscience Reports, 2018) are described below.

Changes are numbered by the printed parent chain.

Experiment in all cases: intrinsic tryptophan fluorescence titration; no ATP; Fluorescence titration (ex 295 nm, em 340 nm), one-site saturation fit; buffer, salt, pH and temperature not given in the material. Wild-type ADAAD Kd values are cited from ref 24 and not listed
What all share (conditions): protein: recombinant; tags: His (Ni-NTA, pET-14b); hairpin

Data set [1] addresses T1, ADAAD S558A (Bos taurus (bovine), UniProt Q9TTA5 221-940, S778A).
T1 sequence: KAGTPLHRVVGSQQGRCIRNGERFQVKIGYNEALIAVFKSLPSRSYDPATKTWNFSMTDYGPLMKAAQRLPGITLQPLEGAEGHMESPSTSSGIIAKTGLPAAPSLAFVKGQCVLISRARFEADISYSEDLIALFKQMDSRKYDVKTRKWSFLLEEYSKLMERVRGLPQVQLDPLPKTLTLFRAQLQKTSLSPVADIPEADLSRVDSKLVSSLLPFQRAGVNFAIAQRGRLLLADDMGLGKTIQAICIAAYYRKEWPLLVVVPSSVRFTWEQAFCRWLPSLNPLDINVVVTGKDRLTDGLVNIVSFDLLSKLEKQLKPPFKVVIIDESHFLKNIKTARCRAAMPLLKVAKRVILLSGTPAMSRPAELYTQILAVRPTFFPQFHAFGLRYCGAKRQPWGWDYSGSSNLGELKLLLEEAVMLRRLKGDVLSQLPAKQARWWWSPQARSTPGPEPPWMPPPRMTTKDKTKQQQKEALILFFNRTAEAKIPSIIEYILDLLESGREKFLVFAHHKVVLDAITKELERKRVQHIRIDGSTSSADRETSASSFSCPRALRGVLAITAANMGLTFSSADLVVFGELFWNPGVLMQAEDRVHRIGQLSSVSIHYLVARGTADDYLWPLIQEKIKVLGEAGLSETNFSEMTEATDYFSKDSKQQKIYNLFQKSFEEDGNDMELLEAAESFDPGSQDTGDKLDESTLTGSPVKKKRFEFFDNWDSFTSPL

The target of data set [2] is T2, ADAAD R595A (Bos taurus (bovine), UniProt Q9TTA5 221-940, R815A).
T2 sequence: T1 sequence with A558S, R595A

The target of data set [3] is T3, ADAAD T560A (Bos taurus (bovine), UniProt Q9TTA5 221-940, T780A).
T3 sequence: T1 sequence with A558S, T560A

B1: slDNA (stem-loop DNA) (structured_DNA)
DNA: GCGCAATTGCGCTCGACGATTTTTTAGCGCAATTGCGC
In the case of B1, the values for the Kd in data set [1], in data set [2] and in data set [3] were 11 ± 2.7 nM, 24 ± 0.6 nM and 6.8 ± 0.6 nM, respectively.
